Reference: publication PMC8782398

How the values were obtained:
[1] = target: human NOP receptor in HEK293 cells (human) (UniProt P41146)
[2] = target: human NOP receptor in HEK293 cells (human) (UniProt P41146); remark: listed apart in the source
[3] = target: human NOP receptor in HEK293 cells (human) (UniProt P41146); remark: listed apart in the source

human NOP receptor in HEK293 cells (human), sequence (P41146 whole entry): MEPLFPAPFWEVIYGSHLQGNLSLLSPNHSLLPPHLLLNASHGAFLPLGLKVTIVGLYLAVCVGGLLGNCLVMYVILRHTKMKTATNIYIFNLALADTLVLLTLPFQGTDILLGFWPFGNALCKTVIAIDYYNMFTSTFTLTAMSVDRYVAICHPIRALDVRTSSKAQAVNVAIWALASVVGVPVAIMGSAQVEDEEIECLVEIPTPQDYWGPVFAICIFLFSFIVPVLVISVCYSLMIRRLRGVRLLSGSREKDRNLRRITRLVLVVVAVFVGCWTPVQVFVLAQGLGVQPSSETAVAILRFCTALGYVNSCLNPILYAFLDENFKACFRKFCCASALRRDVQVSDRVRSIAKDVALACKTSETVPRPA

For “human MOP receptor in HEK293 cells (from UniProt P35372 1-400)”, which GTPγ[35S] binding stimulated by De101, HEK (MOP/NOP) membranes: pEC50 [1] is on record?
Its GTPγ[35S] binding stimulated by De101, HEK (MOP/NOP) membranes: pEC50 is 8.67.

And the GTPγ[35S] binding stimulated by DeNO, HEK (MOP/NOP) membranes: pEC50 [1]?
The GTPγ[35S] binding stimulated by DeNO, HEK (MOP/NOP) membranes: pEC50 was 7.63.

And the GTPγ[35S] binding stimulated by Dermorphin, HEK (MOP/NOP) membranes: pEC50 [1]?
Its GTPγ[35S] binding stimulated by Dermorphin, HEK (MOP/NOP) membranes: pEC50 is 7.6.

What about the inhibition of cAMP formation by De101, HEK (MOP/NOP) cells: Emax (% inhibition) [1] of the same substance?
The inhibition of cAMP formation by De101, HEK (MOP/NOP) cells: Emax (% inhibition) was 86%.

And the inhibition of cAMP formation by De101, HEK (MOP/NOP) cells: pEC50 [1]?
The inhibition of cAMP formation by De101, HEK (MOP/NOP) cells: pEC50 was 8.81.

And the inhibition of cAMP formation by DeNO, HEK (MOP/NOP) cells: Emax (% inhibition) [1]?
The inhibition of cAMP formation by DeNO, HEK (MOP/NOP) cells: Emax (% inhibition) was 88.6%.

And the inhibition of cAMP formation by DeNO, HEK (MOP/NOP) cells: pEC50 [1]?
The inhibition of cAMP formation by DeNO, HEK (MOP/NOP) cells: pEC50 was 7.55.

What about the inhibition of cAMP formation by Dermorphin & N/OFQ (co-administered), HEK (MOP/NOP) cells: Emax (% inhibition) [1] of the same substance?
Its inhibition of cAMP formation by Dermorphin & N/OFQ (co-administered), HEK (MOP/NOP) cells: Emax (% inhibition) is 81.3%.

What about the inhibition of cAMP formation by Dermorphin & UFP-101 (co-administered), HEK (MOP/NOP) cells: Emax (% inhibition) [1] of the same substance?
Its inhibition of cAMP formation by Dermorphin & UFP-101 (co-administered), HEK (MOP/NOP) cells: Emax (% inhibition) is 84.4%.

And the inhibition of cAMP formation by Dermorphin & UFP-101 (co-administered), HEK (MOP/NOP) cells: pEC50 [1]?
The inhibition of cAMP formation by Dermorphin & UFP-101 (co-administered), HEK (MOP/NOP) cells: pEC50 was 8.95.

And the inhibition of cAMP formation by Dermorphin, HEK (MOP/NOP) cells: Emax (% inhibition) [1]?
The inhibition of cAMP formation by Dermorphin, HEK (MOP/NOP) cells: Emax (% inhibition) was 81.4%.

And the inhibition of cAMP formation by Dermorphin, HEK (MOP/NOP) cells: pEC50 [1]?
Its inhibition of cAMP formation by Dermorphin, HEK (MOP/NOP) cells: pEC50 is 7.59.

And the inhibition of cAMP formation by N/OFQ, HEK (MOP/NOP) cells: Emax (% inhibition) [1]?
The inhibition of cAMP formation by N/OFQ, HEK (MOP/NOP) cells: Emax (% inhibition) was 86.3%.

And the inhibition of cAMP formation by N/OFQ, HEK (MOP/NOP) cells: pEC50 [1]?
Its inhibition of cAMP formation by N/OFQ, HEK (MOP/NOP) cells: pEC50 is 9.17.

And the ERK1/2 phosphorylation (fold over basal), 1 μM Dermorphin, HEK (MOP/NOP) cells, 2.5-30 min; peak at 10 min [2]?
The ERK1/2 phosphorylation (fold over basal), 1 μM Dermorphin, HEK (MOP/NOP) cells, 2.5-30 min; peak at 10 min was 11.8 fold.

And the ERK1/2 phosphorylation (fold over basal), 1 μM N/OFQ, HEK (MOP/NOP) cells, 2.5-30 min; peak at 7.5-10 min [3]?
Its ERK1/2 phosphorylation (fold over basal), 1 μM N/OFQ, HEK (MOP/NOP) cells, 2.5-30 min; peak at 7.5-10 min is 5 fold.
